In the supplement of paper PMC9170038:

Tested on: MS2 coat protein
Assay: apparent KD of MS2 coat protein; designed switch direction (-1 OFF switch, 1 ON switch): -1; higher = weaker reporter binding
Procedure, shortened: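 The reported apparent KD is a per-design median over clusters, from curve fits of normalised cluster fluorescence. Protein titrations used SNAP-549-labelled MS2 coat protein, doubled from 0.7 or 1.5 nM to 3 µM, in Tris-HCl pH 7.5 buffer with KCl, MgCl2, BSA, DTT, tRNA and Tween-20, with no input, 200 uM small-molecule ligand, or an oligonucleotide input. The RNA switches were transcribed on Illumina chips by stalled E. coli RNA polymerase.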

[1] = Eterna round: R95, input ligand: microRNA oligo, concentration not stated
[2] = input ligand: microRNA oligo, concentration not stated
[3] = Eterna round: R95, input ligand: FMN 200 uM
[4] = Eterna round: R95, input ligand: none

| Sequence | apparent KD of MS2 coat protein [1] | apparent KD of MS2 coat protein (input ligand: FMN 200 uM) | apparent KD of MS2 coat protein (input ligand: none) | apparent KD of MS2 coat protein [2] | apparent KD of MS2 coat protein [3] | apparent KD of MS2 coat protein [4] |
| --- | --- | --- | --- | --- | --- | --- |
| GAGCUAUGAGGAUAUGCAUAUAUACGGUUUCGUGUGGUACUACAUGAGGAUCACCCAUGUAGAAGGCGUGGCUG [JL-ex2-2.05 mat747 mod] (puzzle: Exclusion 2) | 14.2 nM | – | – | – | – | – |
| GAGCUGUGAGGAUAUACAUGAGGAUCACCCAUGUUAAGGAAGUCGGGAUUAAUUUGGUGUAGAAGGCGCUUAUU [JR_Ex3_Sub020] (Eterna round: R97, puzzle: Exclusion 3) | – | 44 nM | 42.5 nM | – | – | – |
| GAGGAGGUAGGAUAUACGAUAAUAUAGGGUAGAUAUAUAACACAUGAGGAUCACCCAUGUAGAAGGACCAGGAG [Mat - Exclusion 2 - Mod of my Tesla design - D64] (puzzle: Exclusion 2) | 36.7 nM | – | – | – | – | – |
| GAGGCAUGCUGAGGUCCACACAUGAGGAUCACCCAUGUAAUGACAAGCUUUUUCCUCGUCUUAUCGCUAUCGCGUUC [Dilaenla] (Eterna round: R96, puzzle: Sensor v3, turn-off variant 1) | – | 13.1 nM | 16.3 nM | 22.2 nM | – | – |
| GAGGCAUGCUGAGGUCCACACAUGAGGAUCACCCAUGUAAUGACAAGCUUUUUCCUCGUCUUAUCGCUAUCGCGUUC [Dilaenla] (puzzle: Sensor v3, turn-off variant 1) | 28.4 nM | – | – | – | 15.5 nM | 15 nM |
| GAGGUACAUGAGGAUCACCCAUGUGAGGAUAUAGUGGAAGAUUGAGAGAGGUGGAGGACUAGAAGGCACAGUGG [JR_Exclu1_Sub039] (puzzle: Exclusion 1) | 48.1 nM | – | – | – | – | – |
| GAGUGACAUGAGGAUCACCCAUGUGAGGAUAUCGGACGGACCAAAUUAACAAUAAUUGCGAGAAGGCGCAUCGG [Exclusion 1 V15] (puzzle: Exclusion 1) | 51.6 nM | – | – | – | 76 nM | 54.4 nM |
| GAGUGACAUGAGGAUCACCCAUGUGAGGAUAUCGGACGGACCAAAUUAACAAUUUUUGCGAGAAGGCACAUCGG [Exclusion 1 V18] (puzzle: Exclusion 1) | 51.9 nM | – | – | – | – | – |
| GAGUGGCAAGGAUAUACAGUGGAGAGGAUGGCAAGAGGUGGACAUGAGGAUCACCCAUGUAGAAGGUGCAGAGA [JR_Exclu2_Sub024] (puzzle: Exclusion 2) | 150 nM | – | – | – | – | – |
| GAUAAGGUAGGAUAUACGAAGAAAGAGGGUAGUAAUAAUACACAUGAGGAUCACCCAUGUAGAAGGACCAAGAG [Mat - Exclusion 2 - Mod of my Tesla design - D44] (puzzle: Exclusion 2) | 23 nM | – | – | – | 38.7 nM | 22.1 nM |
| GAUAAGGUAGGAUAUACGAAGAAAGAGGGUAGUAAUAAUACACAUGAGGAUCACCCAUGUAGAAGGACCAAUAG [Mat - Exclusion 2 - Mod of my Tesla design - D43] (puzzle: Exclusion 2) | 26 nM | – | – | – | 39.1 nM | 26.4 nM |
| GAUACACAUGAGGAUCACCCAUGUGAGGAUAUGCGUACGUUGUCCGUAGGCGACGUGCGCAGAAGGCGCAAAGG [Mat - Mod of JL D97] (puzzle: Exclusion 1) | 41.3 nM | – | – | – | 85.1 nM | 86 nM |
| GAUCAACAUGAGGAUCACCCAUGUGAGGAUAUGAUACUAUGUACUUCGGUACAUAGUAUCAGAAGGCAUAUGAA [Ex1-3: 36] (puzzle: Exclusion 1) | 52 nM | – | – | – | – | – |
| GAUCAACAUGAGGAUCACCCAUGUGAGGAUAUGAUACUAUGUACUUCGGUACAUAGUAUCAGAAGGCAUGUGGA [Ex1-3: 76] (puzzle: Exclusion 1) | 162 nM | – | – | – | – | – |
| GAUCACUGAGGAUAUACACAGAUACAAAGUAUCUGAUAGUGACAUGAGGAUCACCCAUGUAGAAGGCAGAGGUC [Omei Ex2 B8] (Eterna round: R97, puzzle: Exclusion 2) | – | 433 nM | 72.2 nM | – | – | – |
| GAUCAUGCAGGAUAUACAUGGACCAUGAAAACAUGGAUUUCACAUGAGGAUCACCCAUGUAGAAGGGCAUGAUC [Omei Ex2 A9] (Eterna round: R97, puzzle: Exclusion 2) | – | 82.1 nM | 777 nM | – | – | – |
| GAUCAUGCAGGAUAUACAUGGACCAUGAAAACAUGGUUUUCACAUGAGGAUCACCCAUGUAGAAGGGCAUGAUC [Omei Ex2 A8] (Eterna round: R97, puzzle: Exclusion 2) | – | 275 nM | 1400 nM | – | – | – |

| Sequence | apparent KD of MS2 coat protein [1] | apparent KD of MS2 coat protein (input ligand: FMN 200 uM) | apparent KD of MS2 coat protein (input ligand: none) | apparent KD of MS2 coat protein [2] | apparent KD of MS2 coat protein [3] | apparent KD of MS2 coat protein [4] |
| --- | --- | --- | --- | --- | --- | --- |
| GAUCCACAUGAGGAUCACCCAUGUCAGGAUAUGAUACUAUGUACUUCGGUACAUAGUAUCAGAAGGGACAGAUC [Ex1-3: 2] (puzzle: Exclusion 1) | 162 nM | – | – | – | – | – |
| GAUCCACAUGAGGAUCACCCAUGUUAGGAUAUGACAACGACUCGCACUACGUUGUUGCUCAGAAGGAGCACCCA [Eternabot (Original) Solution 10] (Eterna round: R97, puzzle: Exclusion 1) | – | 19.1 nM | 18.3 nM | – | – | – |
| GAUCCUUAAGUCAGGAUAUCAAGCAAACUCAAAAUUGAGAAGGGACAUGAGGAUCACCCAUGUCACCGAAAUAA [Reteisus] (puzzle: Brourd's mod of Exclusion 4) | 8.98 nM | – | – | – | 10.1 nM | 10.6 nM |
| GAUCUGACAGGAUAUACAUGAGGAUCACCCAUGUGCGAGCUAGCGAAAGCUAGCUUAGGUAGAAGGGUCAGAUC [Ex3 dot plot directed v3] (puzzle: Exclusion 3) | 10.7 nM | – | – | – | – | – |
| GAUGGAGAGCAGGAUAUCUUGGGUAAGCAUCAUAGAGAAGGGCUCACAUGAGGAUCACCCAUGUGGUCCUAGAA [Ateedza] (puzzle: Exclusion 6) | 16.2 nM | – | – | – | 30.7 nM | 14.9 nM |
| GAUUAAUUAAUUAAUUAAUACAUGAGGAUCACCCAUGUAAUUUAAGAUCCUUAUACAAGCUUUGAUCUCGUAAUUAA [Stov1/4-A3] (Eterna round: R97, puzzle: Sensor, turn-off variant 1) | – | 120 nM | 120 nM | – | – | – |
| GAUUAAUUAAUUAAUUAAUACAUGAGGAUCACCCAUGUAAUUUAAGAUCCUUAUACAAGCUUUGAUCUCGUCUUAUA [Stov1/5-A2] (Eterna round: R97, puzzle: Sensor, turn-off variant 1) | – | 163 nM | 159 nM | – | – | – |
| GAUUAUGCGAGCUUUAGGGACAUGAGGAUCACCCAUGUUCGUCUUAUUAAUCUAGGUGCACUAACAUACCUAAAUCU [JMF 32] (puzzle: Sensor v3, turn-off variant 1) | 39.4 nM | – | – | – | 21.9 nM | 21.7 nM |
| GAUUAUGCGAGCUUUAGGGACAUGAGGAUCACCCAUGUUCGUCUUAUUAGUCUAAGUACACUGACAUACCUAAAUCU [JMF 61] (puzzle: Sensor v3, turn-off variant 1) | 14.2 nM | – | – | – | 13.3 nM | 12.4 nM |
| GAUUAUGCGAGCUUUAGGGACAUGAGGAUCACCCAUGUUCGUCUUAUUGGUCUAGGUACACUAACAUACCUAAAUCU [JMF 19] (puzzle: Sensor v3, turn-off variant 1) | 38.9 nM | – | – | – | 20.4 nM | 21.3 nM |
| GAUUAUGCGAGCUUUAGGGACAUGAGGAUCACCCAUGUUCGUCUUAUUGGUCUAGGUGCACUGACAUACCUAAAUCU [JMF 91] (puzzle: Sensor v3, turn-off variant 1) | 34.9 nM | – | – | – | 20.3 nM | 20.5 nM |
| GAUUGACAUGAGGAUCACCCAUGUGAGGAUAUCGGCCGGACCUUGUUAGCUUCCAUCGCGAGAAGGCACAUAGG [Exclusion 1 V32] (puzzle: Exclusion 1) | 25.2 nM | – | – | – | – | – |
| GAUUGACAUGAGGAUCACCCAUGUGAGGAUAUCGGCUGGACCGUGUUGGCUUCCGUCUCGAGAAGGCGCAUAGG [Exclusion 1 V43] (Eterna round: R96, puzzle: Exclusion 1) | – | 43.5 nM | 26.8 nM | 23.9 nM | – | – |
| GAUUGACAUGAGGAUCACCCAUGUGAGGAUAUCGGCUGGACCGUGUUGGCUUCCGUCUCGAGAAGGCGCAUAGG [Exclusion 1 V43] (puzzle: Exclusion 1) | 39.7 nM | – | – | – | 137 nM | 44.4 nM |
| GAUUGAGCUGUUAGGAUAUCCGCAGGCCGCCUGGAGGAGAAGGAACAUGAGGAUCACCCAUGUGCACGGGAGGC [Xemaesti] (Eterna round: R97, puzzle: Brourd's mod of Exclusion 4) | – | 13.4 nM | 15.8 nM | – | – | – |
| GCAAAAUAUCAGGAUAUGACUAGCUGCGGCUAGUCAGAAGGGAUGACAUGAGGAUCACCCAUGUGAUCUCGUGU [JR_Ex6_Sub028] (Eterna round: R97, puzzle: Exclusion 6) | – | 487 nM | 177 nM | – | – | – |
